Data taken from paper doi:10.1101/852095 (bioRxiv, 2019).

B1: MED11 (natural protein, human, UniProt Q9P086 1-117, looked up)
chain: MATYSLANERLRALEDIEREIGAILQNAGTVILELSKEKTNERLLDRQAAAFTASVQHVEAELSAQIRYLTQVATGQPHEGSSYSSRKDCQMALKRVDYARLKLSDVARTCEQMLEN
B2: GTF2E2 (natural protein, human, UniProt P29084 1-291, looked up)
chain: MDPSLLRERELFKKRALSTPVVEKRSASSESSSSSSKKKKTKVEHGGSSGSKQNSDHSNGSFNLKALSGSSGYKFGVLAKIVNYMKTRHQRGDTHPLTLDEILDETQHLDIGLKQKQWLMTEALVNNPKIEVIDGKYAFKPKYNVRDKKALLRLLDQHDQRGLGGILLEDIEEALPNSQKAVKALGDQILFVNRPDKKKILFFNDKSCQFSVDEEFQKLWRSVTVDSMDEEKIEEYLKRQGISSMQESGPKKVAPIQRRKKPASQKKRRFKTHNEHLAGVLKDYSDITSSK
B3: GTF2A2 (natural protein, human, UniProt P52657 1-109, looked up)
chain: MAYQLYRNTTLGNSLQESLDELIQSQQITPQLALQVLLQFDKAINAALAQRVRNRVNFRGSLNTYRFCDNVWTFVLNDVEFREVTELIKVDKVKIVACDGKNTGSNTTE
B4: TAF9 (natural protein, human, UniProt Q16594 1-264, looked up)
chain: MESGKTASPKSMPKDAQMMAQILKDMGITEYEPRVINQMLEFAFRYVTTILDDAKIYSSHAKKATVDADDVRLAIQCRADQSFTSPPPRDFLLDIARQRNQTPLPLIKPYSGPRLPPDRYCLTAPNYRLKSLQKKASTSAGRITVPRLSVGSVTSRPSTPTLGTPTPQTMSVSTKVGTPMSLTGQRFTVQMPTSQSPAVKASIPATSAVQNVLINPSLIGSKNILITTNMMSSQNTANESSNALKRKREDDDDDDDDDDDYDNL
B5: MED31 (natural protein, human, UniProt Q9Y3C7 1-131, looked up)
chain: MAAAVAMETDDAGNRLRFQLELEFVQCLANPNYLNFLAQRGYFKDKAFVNYLKYLLYWKDPEYAKYLKYPQCLHMLELLQYEHFRKELVNAQCAKFIDEQQILHWQHYSRKRMRLQQALAEQQQQNNTSGK

biological target: recombinant NPM1 (Nucleophosmin), probe of the protein array (human, UniProt P06748 1-294); assay: peptide or protein array
Sequence (P06748 whole entry): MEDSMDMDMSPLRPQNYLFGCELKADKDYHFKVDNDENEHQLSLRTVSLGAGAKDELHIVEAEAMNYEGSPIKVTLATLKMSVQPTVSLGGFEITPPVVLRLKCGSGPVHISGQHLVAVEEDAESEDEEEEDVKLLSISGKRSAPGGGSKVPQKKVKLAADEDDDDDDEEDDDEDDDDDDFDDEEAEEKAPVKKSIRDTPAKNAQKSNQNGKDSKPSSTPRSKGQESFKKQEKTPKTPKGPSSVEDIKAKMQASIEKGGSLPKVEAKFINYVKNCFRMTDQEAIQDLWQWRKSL

Binding result, binds:
B1
B2
B3
B4
B5
